Assay results reported in US20220204611A1 (Amgen, published 2022).
Substitutions are numbered along the chain they refer to.

Assays:
[1] = biological target: T1, soluble human TREM2 protein (TREM2 ECD-huIgG1 Fc fusion protein) (human, UniProt Q9NZC2 19-174, biotinylated); test: ELISA, hybridoma supernatant on captured biotinylated TREM2 ECD-Fc
T1 construct: also called biotinylated soluble human TREM2 protein
T1 sequence: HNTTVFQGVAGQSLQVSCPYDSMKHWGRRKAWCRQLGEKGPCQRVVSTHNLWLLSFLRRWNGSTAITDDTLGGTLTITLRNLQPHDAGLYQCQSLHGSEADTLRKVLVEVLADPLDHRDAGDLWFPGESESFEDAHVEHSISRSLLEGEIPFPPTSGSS

human TREM2 on cells [2] = biological target: T2, human TREM2 on cells (human, UniProt Q9NZC2 19-230); test: cell-based or functional assay
T2 sequence: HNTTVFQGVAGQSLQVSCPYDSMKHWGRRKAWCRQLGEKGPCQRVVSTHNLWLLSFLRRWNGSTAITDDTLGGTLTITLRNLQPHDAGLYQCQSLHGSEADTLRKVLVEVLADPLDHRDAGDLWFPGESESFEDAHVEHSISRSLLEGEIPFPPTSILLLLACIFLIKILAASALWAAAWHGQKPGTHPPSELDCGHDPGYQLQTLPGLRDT

[3] = biological target: T3, recombinant soluble human TREM2 protein (human TREM2 ECD-FlagHis) (human, UniProt Q9NZC2 19-174); test: Octet BLI binning; competitor: load Ab 24G6
T3 sequence: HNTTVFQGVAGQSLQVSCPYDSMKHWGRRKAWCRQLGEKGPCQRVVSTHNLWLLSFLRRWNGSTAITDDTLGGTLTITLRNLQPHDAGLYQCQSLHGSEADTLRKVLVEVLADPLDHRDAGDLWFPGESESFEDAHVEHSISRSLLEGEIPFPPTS
Method: (§1) Each of sixteen different anti-TREM2 antibodies produced from hybridomas were quantitated and loaded onto one of the anti-human Fc sensors at 5 μg/mL for 2 minutes (“Load Antibody”). The sensor was then blocked with 100 μg/mL of an irrelevant human IgG2 antibody for 5 minutes. […] Next, each of the sixteen different anti-TREM2 antibodies (“Sandwich Antibody”) was added to the sensor at 5 μg/mL and allowed to bind for 5 minutes. All assay buffers contained 10 mM Tris (pH 7.6), 0.1% Triton X-100, 150 mM NaCl, 1 mM CaCl₂, and 1 mg/mL BSA. The assay was conducted at 25° C. Experimental kinetic results were fit to a 1:1 binding model.
(§2) However, if addition of the sandwich antibody produces a binding event, then the sandwich antibody binds to a different epitope on human TREM2 than the load antibody and the two antibodies are categorized into different epitope bins.

[4] = biological target: T3, recombinant soluble human TREM2 protein …; test: Octet BLI binning; competitor: load Ab 32E3
Method: as §1, §2

[5] = biological target: T4, recombinant soluble cynomolgus TREM2 protein (cynomolgus TREM2 extracellular domain coupled to a Flag/His tag) (cynomolgus, UniProt A0A2K5UY34 49-204); test: Octet BLI, antibody on anti-human Fc sensor, 25 C
T4 construct: extracellular domain; also called Cyno TREM2
T4 sequence: T3 sequence with A10E, W60R, L89F, F125V
Method: (§3) To quantitate the binding affinity of agonist antibodies for human TREM2, association and dissociation rate constants as well as the equilibrium dissociation constant were determined using anti-human Fc (Kinetic) sensors on an Octet® HTX instrument (Pall ForteBio). Agonist anti-TREM2 antibodies were made up in DMEM null media, 250 μL at 10 μg/mL. The, 250 uL of assay buffer (10 mM Tris (pH 7.6), 0.1% Triton X-100, 150 mM NaCl, 1mM CaCl₂, and 1 mg/mL BSA) was added to the antibody solutions to a final volume of 500 μL and final antibody concentration of 5 μg/mL. The anti-human Fc sensor was pre-incubated in 200 μL of the assay buffer for a minimum of 10 minutes. The sensor was then regenerated for 5 seconds in 10 mM glycine pH 1.5. Test agonist anti-TREM2 antibodies were loaded onto the sensor for 2 minutes, and baseline measurements were taken for 2 minutes. […] The recombinant TREM2 proteins were allowed to associate with the antibody-loaded sensor for 10 minutes, and then dissociation was measured for 10 minutes. The assay was conducted at 25° C. Experimental kinetic results were globally fit to a 1:1 binding model in order to determine the association and dissociation rate constants as well as the equilibrium dissociation constant.

[6] = biological target: T3, recombinant soluble human TREM2 protein …; test: Octet BLI, antibody on anti-human Fc sensor, 25 C
Method: as §3

[7] = biological target: T3, recombinant soluble human TREM2 protein …; test: Octet BLI binning; competitor: load Ab 10E3
Method: as §1, §2

[8] = biological target: T3, recombinant soluble human TREM2 protein …; test: Octet BLI binning; competitor: load Ab 4C5
Method: as §1, §2

human TREM2 on cells [9] = biological target: T2, human TREM2 on cells; test: cell-based or functional assay; remark: listed apart in the source
[10] = biological target: T3, recombinant soluble human TREM2 protein …; test: Octet BLI binning; competitor: load Ab 26F2
Method: as §1, §2

[11] = biological target: T3, recombinant soluble human TREM2 protein …; test: Octet BLI binning; competitor: load Ab 4G10
Method: as §1, §2

[12] = biological target: T3, recombinant soluble human TREM2 protein …; test: Octet BLI binning; competitor: load Ab 25F12
Method: as §1, §2

OD 450 [1]: 3.17 OD450 | Emax (% maximum activation compared to RnD antibody) (human TREM2 on cells [2]): 236% | pSyk EC50, differentiated THP-1 cells (human TREM2 on cells [2]): 0.579 nM | sandwich binding signal [3]: 0.184 | sandwich binding signal [4]: -0.029 | Kd [5]: 1.7 nM | Kd [6]: 3.3 nM | sandwich binding signal [7]: -0.019 | sandwich binding signal [8]: -0.018 | pSyk EC50 (human TREM2 on cells [9]): 0.47 nM | sandwich binding signal [10]: 0.18 | sandwich binding signal [11]: -0.026 | sandwich binding signal [12]: 0.199
B1: 4G10 (antibody, human IgG2, V domains shown)
VH: EVQLVQSGAEVKKPGESLKISCKGSGYSFPSYWIAWVRQMPGKGLEWMGIIYPGDSDTRYSPSFQGQVTISADKSISTAFLKWSSLKASDTAMYFCARQGIEVTGTGGLDVWGQGTTVTVSS
VL: DIQMTQSPSSLSASVGDRVTITCRASQGIRNDLGWYQQKPGNAPKRLIYAASSLPSGVPSRFSGSGSGPEFTLTISSLQPEDFATYYCLQHNSYPWTFGQGTKVEIT
notes: human IgG2 from hybridoma
